Changes are numbered by the printed parent chain.
What was measured:
His6-SUMO3-sororin = His6-SUMO3-sororin (human, UniProt Q96FF9 1-252); assay: pull-down
recombinant human Wapl = molecular target: T1, recombinant human Wapl (human, UniProt Q7Z5K2 1-1190); assay: pull-down
T1 sequence: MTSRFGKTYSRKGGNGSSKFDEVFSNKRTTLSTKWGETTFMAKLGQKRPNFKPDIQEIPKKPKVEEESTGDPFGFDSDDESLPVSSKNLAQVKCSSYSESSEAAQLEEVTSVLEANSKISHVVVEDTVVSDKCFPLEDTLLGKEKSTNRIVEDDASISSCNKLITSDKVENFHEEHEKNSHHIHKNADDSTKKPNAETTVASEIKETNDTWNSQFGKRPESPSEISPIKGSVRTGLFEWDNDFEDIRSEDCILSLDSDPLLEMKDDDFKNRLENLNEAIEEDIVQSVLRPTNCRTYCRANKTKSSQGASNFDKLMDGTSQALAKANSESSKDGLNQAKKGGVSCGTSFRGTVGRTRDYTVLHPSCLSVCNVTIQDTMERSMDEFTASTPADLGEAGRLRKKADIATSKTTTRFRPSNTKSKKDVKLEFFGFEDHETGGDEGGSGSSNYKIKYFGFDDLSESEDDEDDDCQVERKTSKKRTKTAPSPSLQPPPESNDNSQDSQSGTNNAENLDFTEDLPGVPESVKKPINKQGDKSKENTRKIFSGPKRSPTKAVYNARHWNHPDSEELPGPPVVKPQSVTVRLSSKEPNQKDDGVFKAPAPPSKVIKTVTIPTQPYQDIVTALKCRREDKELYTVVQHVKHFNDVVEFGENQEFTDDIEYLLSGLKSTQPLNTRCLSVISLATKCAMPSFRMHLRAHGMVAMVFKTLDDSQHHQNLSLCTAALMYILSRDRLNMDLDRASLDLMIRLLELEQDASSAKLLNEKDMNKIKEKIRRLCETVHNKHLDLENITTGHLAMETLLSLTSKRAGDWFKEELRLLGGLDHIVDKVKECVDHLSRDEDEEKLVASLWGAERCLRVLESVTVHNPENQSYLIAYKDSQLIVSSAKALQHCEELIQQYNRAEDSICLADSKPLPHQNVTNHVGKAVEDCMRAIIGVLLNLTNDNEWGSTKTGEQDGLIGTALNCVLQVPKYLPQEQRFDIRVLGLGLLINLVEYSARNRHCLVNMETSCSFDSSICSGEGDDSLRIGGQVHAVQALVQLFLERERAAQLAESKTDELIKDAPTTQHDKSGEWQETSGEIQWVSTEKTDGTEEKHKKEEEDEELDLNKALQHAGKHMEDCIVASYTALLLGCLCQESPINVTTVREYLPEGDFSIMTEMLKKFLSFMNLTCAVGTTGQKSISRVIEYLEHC

Sequence of His6-SUMO3-sororin (Q96FF9 whole entry): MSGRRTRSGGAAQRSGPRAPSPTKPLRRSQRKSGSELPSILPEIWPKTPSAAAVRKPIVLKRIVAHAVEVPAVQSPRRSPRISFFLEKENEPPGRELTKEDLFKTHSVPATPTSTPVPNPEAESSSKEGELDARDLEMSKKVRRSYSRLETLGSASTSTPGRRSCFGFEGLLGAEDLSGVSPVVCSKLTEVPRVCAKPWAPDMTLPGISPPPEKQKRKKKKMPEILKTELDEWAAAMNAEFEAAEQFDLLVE

B1: Flag-tagged Pds5b-Ser1177,1182,1209Ala (3A), untreated or exposed to Nek2a (natural protein)
chain: MAHSKTRTNDGKITYPPGVKEISDKISKEEMVRRLKMVVKTFMDMDQDSEEEKELYLNLALHLASDFFLKHPDKDVRLLVACCLADIFRIYAPEAPYTSPDKLKDIFMFITRQLKGLEDTKSPQFNRYFYLLENIAWVKSYNICFELEDSNEIFTQLYRTLFSVINNGHNQKVHMHMVDLMSSIICEGDTVSQELLDTVLVNLVPAHKNLNKQAYDLAKALLKRTAQAIEPYITNFFNQVLMLGKTSISDLSEHVFDLILELYNIDSHLLLSVLPQLEFKLKSNDNEERLQVVKLLAKMFGAKDSELASQNKPLWQCYLGRFNDIHVPIRLECVKFASHCLMNHPDLAKDLTEYLKVRSHDPEEAIRHDVIVSIVTAAKKDILLVNDHLLNFVRERTLDKRWRVRKEAMMGLAQIYKKYALQSAAGKDAAKQIAWIKDKLLHIYYQNSIDDRLLVERIFAQYMVPHNLETTERMKCLYYLYATLDLNAVKALNEMWKCQNLLRHQVKDLLDLIKQPKTDASVKAIFSKVMVITRNLPDPGKAQDFMKKFTQVLEDDEKIRKQLEVLVSPTCSCKQAEGCVREITKKLGNPKQPTNPFLEMIKFLLERIAPVHIDTESISALIKQVNKSIDGTADDEDEGVPTDQAIRAGLELLKVLSFTHPISFHSAETFESLLACLKMDDEKVAEAALQIFKNTGSKIEEDFPHIRSALLPVLHHKSKKGPPRQAKYAIHCIHAIFSSKETQFAQIFEPLHKSLDPSNLEHLITPLVTIGHIALLAPDQFAAPLKSLVATFIVKDLLMNDRLPGKKTTKLWVPDEEVSPETMVKIQAIKMMVRWLLGMKNNHSKSGTSTLRLLTTILHSDGDLTEQGKISKPDMSRLRLAAGSAIVKLAQEPCYHEIITLEQYQLCALAINDECYQVRQVFAQKLHKGLSRLRLPLEYMAICALCAKDPVKERRAHARQCLVKNINVRREYLKQHAAVSEKLLSLLPEYVVPYTIHLLAHDPDYVKVQDIEQLKDVKECLWFVLEILMAKNENNSHAFIRKMVENIKQTKDAQGPDDAKMNEKLYTVCDVAMNIIMSKSTTYSLESPKDPVLPARFFTQPDKNFSNTKNYLPPEMKSFFTPGKPKTTNVLGAVNKPLSSAGKQSQTKSSRMETVSNASSSSNPSSPGRIKGRLDSAEMDHAENEDYTMSSPLPGKKSDKRDDSDLVRAELEKPRGRKKTPVTEQEEKLGMDDLTKLVQEQKPKGSQRSRKRGHTASESDEQQWPEEKRLKEDILENEDEQNSPPKKGKRGRPPKPLGGGTPKEEPTMKTSKKGSKKKSGPPAPEEEEEEERQSGNTEQKSKSKQHRVSRRAQQRAESPESSAIESTQSTPQKGRGRPSKTPSPSQPKKNVRVGRSKQAATKENDSSEEVDVFQGSSPVDDIPQEETEEEEVSTVNVRRRSAKRERR
- binding result (His6-SUMO3-sororin): binds

B2: Flag-tagged Pds5b-Ser1161,1166,1177,1182,1209Ala (5A), untreated or exposed to Nek2a and Cdk1/2-cyclin A2 (natural protein)
chain: B1 chain with S1161A, S1166A
- binding result (His6-SUMO3-sororin): binds

B3: Flag-tagged Pds5b-Ser1177,1182,1209Ala (3A), phosphorylated by Cdk1/2-cyclin A2 in vitro (natural protein)
chain: B1 chain
- binding result (recombinant human Wapl): binds

Source: paper doi:10.1101/2024.03.12.584565 (bioRxiv, 2024)
